Read-outs that look alike come from different tables or passages of the source. Values belong to the molecule of their own block, whether it stands above or below them.
How the values were obtained:
[1] = target: T1, SH3-2 domain of NCK1 (Homo sapiens, UniProt P16333); assay: Isothermal titration calorimetry (ITC) binding to NCK1 SH3-2 domain; details: Modified MD18/MD20 peptides; ITC, 25 °C, pH 8.0
T1 construct: To amplify the NCK1 SH3-2 domain, the primers; 10xHis tag with TEV site (vector pSF-OXB20-NH2-10HIS) (N, cleaved yes); made in house; host or cells: E. coli C43(DE3)
Excerpt: Human PTP1B cDNA (NM_002827) and human NCK1 cDNA (NM 006153) were obtained (Origene, MD, USA). PTP1B Primers were designed to amplify the ORFs with added homology to the cut vector (EcoRI-digested pSF-OXB20-NH2-10HIS) in the forward primer sequence. To amplify full-length PTP1B, the primers ptp1b_FL_fwd ([…]) (SEQ ID NO: 159) and ptp1b_FL_rev ([…]) (SEQ ID NO: 160) were used. To amplify truncations of PTP1B, the following primer pairs were used: ptp1b_FL-Fwd and one of Ptplb_323stop_rev (gtgcaggaggagttcgaatt[…]) (SEQ ID NO: 161), ptp1b_344stop_rev ([…]) (SEQ ID NO: 162) or ptp1b_278stop_rev([…]) (SEQ ID NO: 163). To amplify the NCK1 SH3-2 domain, the primers ncklsh32_fwd ([…]) (SEQ ID NO: 164) and ncklsh32_rev ([…]) (SEQ ID NO: 165) were used. The amplified fragments were purified using a DNA clean-up kit according to manufacturer's instructions (QIAquick PCR purification kit, Qiagen).
To produce and purify fusion proteins, a culture was inoculated with 1% of overnight-cultured inoculum. Protein expression was carried out under the conditions described above, scaled up as necessary. Cells expressing the recombinant proteins were harvested in 50 mL tubes by centrifugation and stored at −80 °C. Cells containing the expressed gene product were thawed over ice and resuspended in Extraction buffer (10 mM Tris, pH 7.4 or 10 mM Sodium Phosphate, pH 8.0; 300 mM NaCl, 1 mM DTT or TCEP; 0-10% glycerol and 1 μg lysozyme) and sonicated over ice (4 °C) for 3 min total using pulses of 5 s with 15 s intervals, using a wide probe at 15 amplitude microns (Soniprep 150, MSE). Insoluble material was removed from the lysate by centrifugation at 20K rpm for 20-60 min at 4 °C. Supernatant was filtered through a 0.22 μm PVDF filter membrane and applied to 1-2 5 mL HisTrap FF Crude (Cytiva) prepacked Ni columns and connected to an AKTA explorer. After thorough washing with binding buffer (10 mM Tris, pH 7.4 or 10 mM Sodium Phosphate, pH 8.0; 300 mM NaCl; 1 mM DTT or TCEP and 25 mM Imidazole), protein was eluted using elution buffer (10 mM Tris, pH 7.4 or 10 mM Sodium Phosphate, pH 8.0; 150-300 mM NaCl; 1 mM DTT or TCEP and 250 mM Imidazole). Fractions containing protein of interest were confirmed by SDS PAGE. Protein was diluted with GF buffer (10 mM Tris, pH 7.4 or 10 mM Sodium Phosphate, pH 8.0; 150-300 mM NaCl) and subjected to TEV protease treatment overnight at 4-10 °C. Following proteolytic digestion, HIS-tag and TEV protease were removed by filtration through a clean 5 mL HisTrap FF Crude (Cytiva) prepacked Ni column. Protein was concentrated on a PES ultrafiltration device by centrifugation at 4000 rpm at 4 °C, and protein was polished via a HiPrep S-100 26/60 (Cytiva) using GF buffer (as described above). Purified proteins were concentrated using ultrafiltration, and protein concentration was determined using ultraviolet-visible spectroscopy. The integrity and identity of all proteins were verified by mass spectrographic analysis.
Isothermal titration calorimetry (ITC) was used to determine binding affinities for peptides against the SH3-2 domain of NCK1. Experiments were conducted at 25 °C using either a MicroCal iTC200 or MicroCal PEAQ-ITC calorimeter. The buffer used for all ITC experiments was 10 mM sodium [COMPOUND LEFT OUT] mM sodium chloride (pH=8.0). A series of peptides (concentration 3-7.5 mM) were titrated in to NCK1 SH3-2 domain (concentration 0.125-0.3 mM) using the following conditions: one injection of 0.2 μL followed by 19 injections of 2 μL, 120-150 seconds spacing between injections, at 25 °C. The data were fit using analysis software provided by the manufacturer and affinity values were calculated. The best fitting occurred when the number of sites was between 0.8 and 1.2. The experiments were repeated twice for a total of three times, and the average binding affinity for each peptide was generated. […]

[2] = target: T2, NCK1 SH3-2 domain (human); assay: ITC
T2 chain: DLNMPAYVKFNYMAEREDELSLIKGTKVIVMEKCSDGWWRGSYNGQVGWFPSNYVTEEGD

[3] = target: T2, NCK1 SH3-2 domain; assay: ITC
[4] = target: T2, NCK1 SH3-2 domain; assay: ITC

B6: MH016 (peptide)
chain: Ac-RPPK-NH2
- Kd [4]: > 1000 µM

B7: MH051 (peptide)
chain: Ac-PPRPPER-NH2
- Kd [3]: < 300 µM

B9: MH017 (peptide)
chain: Ac-PPKR-NH2
- Kd [4]: > 1000 µM

B10: MH029 (peptide)
chain: Ac-PEHIPPPPRPPKR-NH2
- Kd [4]: < 300 µM

B13: MH049 (peptide)
chain: Ac-PPRPPHR-NH2
- Kd [3]: < 300 µM

B15: MH028 (peptide)
chain: Ac-EHIPPPPRPPKR-NH2
- Kd [4]: < 300 µM

B16: MH019 (peptide)
chain: PRP
- Kd [4]: > 1000 µM

B18: MH030 (peptide)
chain: Ac-PPEHIPPPPRPPKR-NH2
- Kd [4]: < 300 µM

B20: MH015 (peptide)
chain: PPK
- Kd [4]: > 1000 µM

B21: MH014 (peptide)
chain: PKR
- Kd [4]: > 1000 µM

B22: MH026 (peptide)
chain: Ac-IPPPPRPPKR-NH2
- Kd [4]: < 300 µM

B28: MH050 (peptide)
chain: Ac-PPRPPWR-NH2
- Kd [3]: < 300 µM

B33: MH020 (peptide)
chain: RPP
- Kd [4]: > 1000 µM

B34: MH054 (peptide)
chain: Ac-PPRPPCR-NH2
- Kd [3]: < 300 µM

B35: MH048 (peptide)
chain: Ac-PPRPPRR-NH2
- Kd [3]: < 300 µM

B36: MH018 (peptide)
chain: Ac-RPPKR-NH2
- Kd [4]: > 1000 µM

B38: MH052 (peptide)
chain: Ac-PPRPPSR-NH2
- Kd [3]: < 300 µM

B40: MH022 (peptide)
chain: Ac-PRPPK-NH2
- Kd [4]: > 1000 µM

B41: MH024 (peptide)
chain: Ac-PPPRPPKR-NH2
- Kd [4]: < 300 µM

B44: MH027 (peptide)
chain: Ac-HIPPPPRPPKR-NH2
- Kd [4]: < 300 µM

B48: MH021 (peptide)
chain: Ac-PRPP-NH2
- Kd [4]: > 1000 µM

B50: MH025 (peptide)
chain: Ac-PPPPRPPKR-NH2
- Kd [4]: < 300 µM

Now from value to molecule:

- Kd [1]: > 1000 µM
Molecule: H-PRPPKR-NH2 [MH080, H-PRPPKR-NH2]

- Kd [2]: < 300 µM
B1: MH068 (peptide)
chain: Ac-RPRPPKR-NH2

- Kd [2]: < 300 µM
B2: MH086 (peptide)
chain: Ac-QPRPPKR-NH2

- Kd [2]: < 300 µM
B3: MH070 (peptide)
chain: Ac-CPRPPKR-NH2

- Kd [3]: < 300 µM
B4: MH102 (peptide)
chain: Ac-PPRPPLR-NH2

- Kd [2]: < 300 µM
B5: MH119 (peptide)
chain: Ac-YPRPPKR-NH2

- Kd [2]: < 300 µM
B8: MH074 (peptide)
chain: Ac-SPRPPKR-NH2

- Kd [3]: < 300 µM
B11: MH126 (peptide)
chain: Ac-PPRPPVR-NH2

- Kd [3]: < 300 µM
B12: MH122 (peptide)
chain: Ac-PPRPPYR-NH2

- Kd [2]: < 300 µM
B14: MH083 (peptide)
chain: Ac-DPRPPKR-NH2

- Kd [2]: < 300 µM
B17: MH071 (peptide)
chain: Ac-EPRPPKR-NH2

- Kd [3]: < 300 µM
B19: MH107 (peptide)
chain: Ac-PPRPPPR-NH2

- Kd [3]: < 600 µM
B23: MH085 (peptide)
chain: Ac-PPRPPDR-NH2

- Kd [2]: < 300 µM
B24: MH072 (peptide)
chain: Ac-HPRPPKR-NH2

- Kd [2]: < 600 µM
B25: MH099 (peptide)
chain: Ac-LPRPPKR-NH2

- Kd [2]: < 300 µM
B26: MH073 (peptide)
chain: Ac-FPRPPKR-NH2

- Kd [2]: < 300 µM
B27: MH069 (peptide)
chain: Ac-NPRPPKR-NH2

- Kd [2]: < 300 µM
B29: MH117 (peptide)
chain: Ac-WPRPPKR-NH2

- Kd [2]: < 300 µM
B30: MH103 (peptide)
chain: Ac-KPRPPKR-NH2

- Kd [2]: < 300 µM
B31: MH109 (peptide)
chain: Ac-MPRPPKR-NH2

- Kd [3]: < 300 µM
B32: MH088 (peptide)
chain: Ac-PPRPPQR-NH2

- Kd [2]: < 300 µM
B37: MH123 (peptide)
chain: Ac-VPRPPKR-NH2

- Kd [3]: < 600 µM
B39: MH105 (peptide)
chain: Ac-PPRPPFR-NH2

- Kd [3]: > 600 µM
B42: MH094 (peptide)
chain: Ac-PPRPPGR-NH2

- Kd [3]: < 300 µM
B43: MH116 (peptide)
chain: Ac-PPRPPTR-NH2

- Kd [2]: < 300 µM
B45: MH095 (peptide)
chain: Ac-IPRPPKR-NH2

- Kd [2]: < 300 µM
B46: MH113 (peptide)
chain: Ac-TPRPPKR-NH2

- Kd [2]: < 300 µM
B47: MH091 (peptide)
chain: Ac-GPRPPKR-NH2

- Kd [3]: < 300 µM
B49: MH112 (peptide)
chain: Ac-PPRPPMR-NH2
